± gives the uncertainty stated by the source.

The nature of the data set: amyloid nucleation score (Sup35N fusion, yeast selection) (log enrichment); library NNK2; higher = more nucleation; inactive = no reads after selection. A digest of the protocol:
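Growth for 7 days at 30°C on medium lacking adenine and uracil followed a 24-hour induction with 100 μM copper sulfate of psi-negative yeast expressing peptides of 20 random codons fused to Sup35N. Input and output plasmid inserts were sequenced with Illumina, and sequences with under 100 input reads were excluded. Nucleation score is the DiMSum log enrichment of output over input reads, centred on the mode score of non-aggregating sequences.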
In turn, RLSRYFLRFWWAYDYDSN had an amyloid nucleation score of 0.101 ± 0.54.
The substance RLSSYILAIYSNRAKYF came in with an amyloid nucleation score of 0.412 ± 0.5.
RLSVAFRRVRDRYVLLIFLP registered an amyloid nucleation score of 0.548 ± 0.55.
As for RLSVTLL, the figure is -0.157 ± 0.24.
As to RLSWLLLKFNDQVWRLIGAG, the amyloid nucleation score was determined as 4.04 ± 0.054.
To RLVTWGISQNRLAQLY belongs -0.001 ± 0.33.
To RLVWWVIWIPSKCMGADKNW belongs -0.029 ± 0.8.
To RLYVTSYIY belongs 3.26 ± 0.098; to RMCVWHMLVIGVRGKTGATR, 3.01 ± 0.11.
As for RMDTGNLYVFLMKCFNMAYA, the amyloid nucleation score worked out at 5.2 ± 0.091.
As for RMFVLLNRPNGLSCKGMFRG, the figure is 0.446 ± 0.64.
Turning to RMKMDNIPFEIYVFTVTLLD, the amyloid nucleation score result is “inactive”.
As for RMKVDTLIWTPDWMEFVSII, the figure is -0.824 ± 1.1; as for RMLLKLTHFALSVKGMQSRY, 0.417 ± 0.38; as for RMNSYKLSKVYNT, -0.225 ± 1.
RMNYTTEIGHSGFSGNIWTG yielded an amyloid nucleation score of -0.45 ± 0.78.
As for RMPGWY, the entry is “inactive”.
To RMRLSYWHCISLGLVLLRPI belongs 0.298 ± 0.39.
RMSVWNNECTWTSSVSVHPK: the amyloid nucleation score was 2.37 ± 0.1.
As for RNLGIHKSLFNSAYARAWAV, the figure is -0.771 ± 0.49; as for RNLYGHISVIFCGDNFDGSC, 7.15 ± 0.077.
Take RNNRLTLVRVSFDVQCEPMV: the amyloid nucleation score is 0.468 ± 0.46.
To RNPVTSIVQVHDKMGRRSKS belongs “inactive”; to RNQNLLWNVSGIAFNKMRRK, 4.02 ± 0.093.
As for RNSPVSLDVVSI, the figure is 0.046 ± 0.49.
In turn, RPCQGLDTSVRCVLMMRYYR had an amyloid nucleation score of 4.36 ± 0.046.
RPLASSWAQY showed an amyloid nucleation score of 1.65 ± 0.21.
As for RPPSIYC, the figure is -0.477 ± 0.49.
To RPRILYLLLFLYNHFLTSYK belongs -1.08 ± 1; to RPSFKKYFAGSSDTNGSGVC, -0.513 ± 0.64.
As for RQALVRILFSSSRIGGM, the figure is -0.857 ± 0.44; as for RQANFAQDPTSIVPVYMYLR, 2.35 ± 0.074.
Take RQARSCIVGDGSWRGCLIKV: the amyloid nucleation score was 1.11 ± 0.26.
To RQEFNCIASCRF belongs 2.12 ± 0.091; to RQLAFFLIYPHGASVTYWAP, -0.956 ± 1.1; to RQLLTKCLCASTGGFIFSWD, 0.792 ± 0.8.
As for RQMMWRYEE, the figure is 0.3 ± 0.32; as for RQSIEISYLYISFGHKYR, 5.98 ± 0.083.
To RRCEGCN belongs -0.299 ± 1.
In the case of RRDHHMPPITPGCFRLYWRI, the amyloid nucleation score is 0.237 ± 1.
Regarding RRGIASILGHYRGTKMTGFD, the amyloid nucleation score amounted to 0.135 ± 0.56.
Substance RRGNWKMSFFRMLTVNP displayed an amyloid nucleation score of -0.488 ± 0.55.
In turn, RRIINFQGHREEYGEMHTVM gave an amyloid nucleation score of -0.449 ± 0.64.
To RRISSKECLYRWGALWYIEI belongs 0.086 ± 0.61; to RRNMVSWVSDDEQFSDKPLA, 0.121 ± 0.4.
As for RRRPRGLEGFAERGLGDWTY, the figure is 1.36 ± 0.44.
To RRSNLGNWFDV belongs 0.285 ± 1; to RRSWCLGFSRDLMSELKGIS, 1.4 ± 0.41.
Regarding RRTIGASTEKYRLNNFLHVC, the amyloid nucleation score was -0.661 ± 1.1.
As for RRWTHKEPIKASLVRRFLRV, the entry is “inactive”; as for RSCYVYRN, “inactive”.
The substance RSGSQENKVSECAQDTTFSV yielded an amyloid nucleation score of 0.367 ± 0.54.
Take RSKSCSVVVRL: the amyloid nucleation score worked out at 0.813 ± 0.43.
RSLLRFQ yielded an amyloid nucleation score of 0.874 ± 0.14.
The substance RSLSSPSRKLKLTNLWI displayed an amyloid nucleation score of -0.226 ± 1.1.
As for RSLTCLSVKGNLTHTINVCY, the figure is 6.08 ± 0.069.
As for RSLYVVFWIAGFEWGEIRVA, the figure is 0.822 ± 0.26; as for RSSLQSPWGYPKPMWLRSCA, 1.06 ± 0.33.
To RSSQTPFWEIGSMLLSKMCA belongs 0.65 ± 0.42; to RSSRVEYSCLDGRMRELRGS, -0.443 ± 0.48; to RSSWPTLKQGCSKSRQIWRA, 0.182 ± 0.3.
On to RSTLDQRRFGNRF, for which the amyloid nucleation score came out at 0.063 ± 1.1.
As for RSVKDTPCLKLVLMKRDTLK, the figure is 0.092 ± 0.54.
To RSYLIKSLVSSLSARWIMMS belongs -0.03 ± 0.49; to RTCDDA, 0.294 ± 0.8.
In the case of RTCHGHYFLMM, the amyloid nucleation score is 0.683 ± 0.74.
As for RTDSGTMMCRVWAMYPESTS, the figure is 1.22 ± 0.41; as for RTDVFWNRMQRDSLFKPNAT, 0.192 ± 0.44; as for RTEMHYARQRHELDVPVWL, 0.25 ± 0.49.
As for RTFLDIIGQTLLYVLVTVLA, the figure is 0.548 ± 0.46.
Take RTGRRSAFCTSVRRLNPDCL: the amyloid nucleation score was 1.17 ± 0.41.
As for RTGSALAHCFCDMQYVAATI, the entry is “inactive”; as for RTHCSMSYQSRVVVDWLLQK, 4.18 ± 0.087; as for RTIAVSQWLASHGTVLVWPD, “inactive”.
As for RTLYGALMIVWVS, the figure is 0.004 ± 1.1; as for RTNVWASDI, -0.32 ± 0.39.
Substance RTRDPRIFLSVCTGYTRRYY gave an amyloid nucleation score of -1.28 ± 0.76.
To RTRLS belongs 0.559 ± 0.21.
To RTRTYL belongs “inactive”; to RTSFRNVMTIMTSPHVVTFI, -0.149 ± 0.4; to RTSRVVIKILDPFQFVMLFI, -0.211 ± 0.49.
As to RTTGTLLMRAESALPGRVVN, the amyloid nucleation score was 5.762 ± 0.055.
In turn, RTTWPHLVGSRILFYTSHSM showed an amyloid nucleation score of -0.392 ± 0.63.
To RTVDELTRRWWSKRRMGMSW belongs 2.03 ± 0.25; to RTYILYSDFGCRRCDY, 3.56 ± 0.1; to RVDCPYSGNVLTRVGNRCWA, 0.729 ± 0.25.
RVGIH came in with an amyloid nucleation score of 1.52 ± 0.22.
To RVIGVWILIAWQRQV belongs 0.822 ± 0.66; to RVKYLDDCQYMLFRWCRMFT, 0.209 ± 0.29; to RVLISQGLMYISHTMSG, 5.337 ± 0.044.
To RVMYGGCFHSRKRASVPYLY belongs -0.405 ± 0.76.
Regarding RVNGLKSRVSRVRIGNVS, the amyloid nucleation score worked out at 0.224 ± 0.23.
RVNSIAFI yielded an amyloid nucleation score of -0.701 ± 0.56.
To RVPFFVGAG belongs -0.271 ± 0.74; to RVRERIQIYLLLSGQDQFKM, 3.6 ± 0.14.
As for RVRGSSVSISKLNKCKVVDT, the amyloid nucleation score was 3.33 ± 0.091.
RVSSYSQATKKLKHERFGDV came in with an amyloid nucleation score of -0.533 ± 0.44.
To RVTHRQDCMNVLGSRDYFER belongs -0.574 ± 0.39; to RVVCLLKGRWFALVLPDYCR, 0.479 ± 0.8; to RVVRGWIAYFW, 0.374 ± 0.44.
As for RWMILSFSLAWVSMSFENNM, the figure is 0.784 ± 0.18; as for RWYSTRCTVEFINATSIVRA, -0.531 ± 1.1; as for RWYYTRTF, -0.504 ± 1.1.
Consider RYFDDWVNSRTVKCGWDWYA, for which the amyloid nucleation score was determined as 0.641 ± 0.17.
As for RYGERIFV, the figure is 0.627 ± 0.43; as for RYHDLGI, -0.093 ± 0.2; as for RYIIL, 0.728 ± 0.62.
In turn, RYINQ displayed an amyloid nucleation score of -0.481 ± 1.1.
To RYLSTLSVLYRTTSCRA belongs “inactive”; to RYMCGRGHRCF, 3.04 ± 0.087; to RYMKAG, -0.558 ± 0.54.
To RYNFYRLNLSRAVASDETCV belongs -0.854 ± 0.34; to RYNTYML, -1.33 ± 0.36.
Regarding RYPVDRLVMSKRCPALRDGG, the amyloid nucleation score was 0.652 ± 0.23.
To RYSFSLMGFDSKGNKVGIMS belongs 3.65 ± 0.06; to RYTLRGSGEWLVHDTLGVTD, 0.267 ± 0.5.
As for RYVGRDR, the entry is “inactive”; as for RYWLLKFNCVLWEISFCRTM, 5.89 ± 0.07.
In turn, RYYDLTNVVRPHYPCAHGDV registered an amyloid nucleation score of 7.333 ± 0.054.
As for RYYGRPFRVLYRWSVREYYT, the figure is 4.395 ± 0.04; as for RYYVSEPLGDFAWFFPGDHR, “inactive”; as for SADDL, 0.972 ± 0.39.
On to SAFLRIINACTATFHENSAR, for which the amyloid nucleation score entry is “inactive”.
For the substance SAFSFTSLSKYGLFSFCVVR, the amyloid nucleation score is -0.274 ± 0.63.
Regarding SAFSVSYTKSAFSARTVDIK, the amyloid nucleation score is -0.948 ± 0.33.
As for SAGFCFNNCFVFASGDYVNR, the amyloid nucleation score turned out to be 7.493 ± 0.047.
As for SAINIFGALAKCFMVMLALF, the entry is “inactive”; as for SAIRLMGG, 5.378 ± 0.048.
To SAPECNLAARVFYLLSPMGM belongs 0.13 ± 1.1; to SAQWGREMVISARHRVPVEL, 4.92 ± 0.079; to SAWQRIEWL, -0.339 ± 0.64.
SCAHKELCQSVLRDVYWCTL showed an amyloid nucleation score of -0.224 ± 0.79.
As for SCFPM, the figure is -1.67 ± 0.62.
In the case of SCGIVRERFIVFELWSVCSG, the amyloid nucleation score is -0.147 ± 0.42.
The substance SCHLLL registered an amyloid nucleation score of -0.891 ± 1.1.
As for SCHVC, the figure is 5.854 ± 0.058.
As for SCLLSL, the figure is 0.506 ± 0.45; as for SCLSGFTIWQVSLRYCASFG, 0.312 ± 0.38; as for SCPIRTL, 0.424 ± 0.43.
Take SCRVME: the amyloid nucleation score was determined as 0.292 ± 0.2.
SCSDMIKYHHTVELSLVSAT gave an amyloid nucleation score of 0.295 ± 1.

Source of the values: the supplement of paper PMC12042874.
